One protein from patent US20080118499 can be followed below.

The target in this data set is T1, in vitro translated GGA3 wild type (from HA-GGA3 pcDNA4 plasmid), Q9NZ52.
T1 chain: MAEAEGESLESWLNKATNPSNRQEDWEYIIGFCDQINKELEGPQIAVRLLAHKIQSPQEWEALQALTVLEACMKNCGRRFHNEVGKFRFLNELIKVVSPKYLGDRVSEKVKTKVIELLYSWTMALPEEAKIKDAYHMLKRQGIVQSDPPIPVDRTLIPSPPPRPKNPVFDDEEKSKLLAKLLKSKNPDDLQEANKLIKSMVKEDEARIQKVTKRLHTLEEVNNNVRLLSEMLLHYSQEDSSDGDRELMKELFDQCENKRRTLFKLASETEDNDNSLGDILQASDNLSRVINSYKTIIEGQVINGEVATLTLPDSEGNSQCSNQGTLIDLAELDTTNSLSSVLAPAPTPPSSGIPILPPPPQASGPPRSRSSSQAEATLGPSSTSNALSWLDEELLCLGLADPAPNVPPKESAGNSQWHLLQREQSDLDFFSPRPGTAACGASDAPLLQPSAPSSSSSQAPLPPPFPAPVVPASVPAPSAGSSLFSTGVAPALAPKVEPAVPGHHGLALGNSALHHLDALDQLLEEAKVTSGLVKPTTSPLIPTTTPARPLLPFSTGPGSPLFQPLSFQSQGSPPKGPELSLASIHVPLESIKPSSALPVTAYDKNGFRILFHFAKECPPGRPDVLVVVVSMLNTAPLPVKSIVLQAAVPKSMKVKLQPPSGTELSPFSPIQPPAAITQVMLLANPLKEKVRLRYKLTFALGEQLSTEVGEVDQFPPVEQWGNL

B1: recombinant caspase 3 (Pharmingen) (protein)
chain: SGISLDNSYKMDYPEMGLCIIINNKNFHKSTGMTSRSGTDVDAANLRETFRNLKYEVRNKNDLTREEIVELMRDVSKEDHSKRSSFVCVLLSHGEEGIIFGTNGPVDLKKITNFFRGDRCRSLTGKPKLFIIQACRGTELDCGIETDSGVDDDMACHKIPVEADFLYAYSTAPGYYSWRNSKDGSWFIQSLCAMLKQYADKLEFMHILTRVNRKVATEFESFSFDATFHAKKQIPCIVSMLTKELYFYH
For the protein B1, the “cleavage of in vitro translated GGA3 (cold methionine), Western blot with anti-GGA3 antibody” value is reported as “recombinant caspase 3 cleaves in vitro translated GGA3 (cold methionine) in three fragments” and the “cleavage of in vitro translated [35S]-methionine-labeled GGA3 (SDS-PAGE, phosphorimager)” value is reported as “Recombinant caspase 3 cleaved in vitro translated GGA3 in several fragments”.
